PMC9482650, “Quantitative fragmentomics allow affinity mapping of interactomes” (Nature Communications, 2022)
Numbering of substitutions follows the chain as printed.

Assays:
Experiment in all cases: holdup assay
Set-up in all cases: key: below the threshold = too weak to quantify, mostly under pKd 3.1 to 4
[1] = biological target: DLG2_3, Q15700
[2] = biological target: T1, GRIP1_4, Q9Y3R0
T1 sequence (Q9Y3R0 467-571, limits assumed, looked up): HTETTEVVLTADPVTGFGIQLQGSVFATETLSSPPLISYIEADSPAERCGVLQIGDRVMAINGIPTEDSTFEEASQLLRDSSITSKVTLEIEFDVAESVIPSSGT

[3] = biological target: T2, NHERF3_3, Q5T2W1
T2 sequence (Q5T2W1 238-333, limits assumed, looked up): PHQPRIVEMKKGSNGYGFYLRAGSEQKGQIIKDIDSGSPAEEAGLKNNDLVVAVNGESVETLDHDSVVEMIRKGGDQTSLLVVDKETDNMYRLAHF

[4] = biological target: T3, APBA1_1, Q02410
T3 sequence (Q02410 651-752, limits assumed, looked up): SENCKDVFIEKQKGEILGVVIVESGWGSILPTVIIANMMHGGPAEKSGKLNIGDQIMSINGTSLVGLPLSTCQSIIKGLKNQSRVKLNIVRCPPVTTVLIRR

[5] = biological target: FRMPD3, Q5JV73
[6] = biological target: GRASP, Q7Z6J2
[7] = biological target: T4, APBA1_2, Q02410
T4 sequence (Q02410 742-832, limits assumed, looked up): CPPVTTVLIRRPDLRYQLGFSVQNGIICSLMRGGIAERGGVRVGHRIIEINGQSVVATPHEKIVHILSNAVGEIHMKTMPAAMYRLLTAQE

[8] = biological target: T5, GRIP1_5, Q9Y3R0
T5 sequence (Q9Y3R0 568-668, limits assumed, looked up): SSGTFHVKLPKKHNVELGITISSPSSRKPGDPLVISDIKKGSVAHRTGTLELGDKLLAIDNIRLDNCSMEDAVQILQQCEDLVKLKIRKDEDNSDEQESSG

[9] = biological target: MAGI2_2, Q86UL8
[10] = biological target: T6, APBA2_2, Q99767
T6 sequence (Q99767 654-744, limits assumed, looked up): T4 sequence (Q02410 742-832, limits assumed, looked up) with R10K, R15K, P59A, H65Q, I66A, A70S, Y84F, A89G

[11] = biological target: T7, LIN7B, Q9HAP6
T7 sequence (Q9HAP6 88-185, limits assumed, looked up): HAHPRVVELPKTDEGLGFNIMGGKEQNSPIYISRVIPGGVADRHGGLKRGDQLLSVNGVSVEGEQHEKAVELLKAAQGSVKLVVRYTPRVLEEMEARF

[12] = biological target: LDB3, O75112
[13] = biological target: T8, RAPGEF6, Q8TEU7
T8 sequence (Q8TEU7 525-625, limits assumed, looked up): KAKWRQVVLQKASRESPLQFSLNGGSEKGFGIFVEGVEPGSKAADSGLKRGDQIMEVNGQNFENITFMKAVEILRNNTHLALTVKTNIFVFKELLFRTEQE

[14] = biological target: DLG4_1, P78352
[15] = biological target: T9, FRMPD1, Q5SYB0
T9 sequence (Q5SYB0 52-145, limits assumed, looked up): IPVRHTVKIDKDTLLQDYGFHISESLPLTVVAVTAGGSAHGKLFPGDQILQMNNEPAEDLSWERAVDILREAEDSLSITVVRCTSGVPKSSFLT

[16] = biological target: T10, HTRA4, P83105
T10 sequence (P83105 378-476, limits assumed, looked up): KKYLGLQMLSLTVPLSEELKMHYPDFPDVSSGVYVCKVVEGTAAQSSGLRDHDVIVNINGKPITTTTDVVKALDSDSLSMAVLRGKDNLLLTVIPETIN

[17] = biological target: DLG1_1, Q12959
[18] = biological target: PARD3_3, Q8TEW0
[19] = biological target: GRIP2_6, Q9C0E4
[20] = biological target: T11, NHERF3_1, Q5T2W1
T11 sequence (Q5T2W1 4-100, limits assumed, looked up): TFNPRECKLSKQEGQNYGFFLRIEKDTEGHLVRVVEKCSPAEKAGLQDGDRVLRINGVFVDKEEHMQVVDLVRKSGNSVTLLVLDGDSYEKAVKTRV

[21] = biological target: Inadl_6, Q8NI35
[22] = biological target: MAST1, Q9Y2H9
[23] = biological target: GORASP2, Q9H8Y8
[24] = biological target: GOPC, Q9HD26
[25] = biological target: T12, SNTB1, Q13884
T12 sequence (Q13884 107-205, limits assumed, looked up): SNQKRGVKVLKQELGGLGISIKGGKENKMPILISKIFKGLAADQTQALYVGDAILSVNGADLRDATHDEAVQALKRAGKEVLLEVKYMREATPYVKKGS

[26] = biological target: LAP2, Q96RT1
[27] = plain residues with an end cap or a label only (N-terminal biotin on a linker: (peg)3)
[28] = plain residues with an end cap or a label only (N-terminal biotin on a linker: ado-ado)

Chain of LDB3, O75112 (O75112 1-94): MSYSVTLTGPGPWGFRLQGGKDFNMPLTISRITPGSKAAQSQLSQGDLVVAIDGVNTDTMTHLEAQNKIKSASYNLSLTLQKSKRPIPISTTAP
Chain of PARD3_3, Q8TEW0 (Q8TEW0 582-685): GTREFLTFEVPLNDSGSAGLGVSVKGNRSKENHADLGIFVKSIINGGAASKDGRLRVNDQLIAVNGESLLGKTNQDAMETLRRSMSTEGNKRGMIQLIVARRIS
Chain of MAGI2_2, Q86UL8 (Q86UL8 410-522): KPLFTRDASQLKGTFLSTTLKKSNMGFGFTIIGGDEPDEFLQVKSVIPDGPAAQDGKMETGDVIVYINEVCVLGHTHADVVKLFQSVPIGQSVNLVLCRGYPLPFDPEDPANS
Chain of GRIP2_6, Q9C0E4 (Q9C0E4 648-740): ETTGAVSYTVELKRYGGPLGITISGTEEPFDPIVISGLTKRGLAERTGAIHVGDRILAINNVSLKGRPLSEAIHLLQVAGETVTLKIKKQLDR
Chain of DLG4_1, P78352 (P78352 62-152): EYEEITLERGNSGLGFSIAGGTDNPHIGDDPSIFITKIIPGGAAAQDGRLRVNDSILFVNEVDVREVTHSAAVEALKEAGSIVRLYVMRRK
Chain of FRMPD3, Q5JV73 (Q5JV73 12-100): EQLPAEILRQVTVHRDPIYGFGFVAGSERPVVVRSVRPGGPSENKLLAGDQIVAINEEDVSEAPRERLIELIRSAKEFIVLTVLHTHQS
Chain of LAP2, Q96RT1 (Q96RT1 other isoform, or with tags, fused parts or gaps): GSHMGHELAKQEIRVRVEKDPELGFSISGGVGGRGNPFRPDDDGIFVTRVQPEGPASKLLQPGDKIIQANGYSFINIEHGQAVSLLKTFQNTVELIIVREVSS
Chain of GRASP, Q7Z6J2 (Q7Z6J2 96-193): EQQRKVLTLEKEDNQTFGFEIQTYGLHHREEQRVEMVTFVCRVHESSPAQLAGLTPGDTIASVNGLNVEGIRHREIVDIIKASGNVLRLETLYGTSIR
Chain of MAST1, Q9Y2H9 (Q9Y2H9 962-1065): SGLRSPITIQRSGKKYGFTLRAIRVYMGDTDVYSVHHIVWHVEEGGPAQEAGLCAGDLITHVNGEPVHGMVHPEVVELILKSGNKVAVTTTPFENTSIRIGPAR
Chain of Inadl_6, Q8NI35 (Q8NI35 1058-1167): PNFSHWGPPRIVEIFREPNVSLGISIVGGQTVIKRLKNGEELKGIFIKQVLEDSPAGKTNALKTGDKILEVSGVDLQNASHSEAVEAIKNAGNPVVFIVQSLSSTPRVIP

YDEPTTTTSVPL [SARS-Cov2-3a, P0DTC3] was tested. Which pKd [1, 27] did it give?
The pKd was “below the threshold”.

And the pKd [2, 27]?
The pKd was “below the threshold”.

And the pKd [3, 27]?
Its pKd is “below the threshold”.

And the pKd [4, 27]?
The pKd was “below the threshold”.

What about the pKd [5, 27] of the same binder?
The pKd was “below the threshold”.

What about the pKd [6, 27] of the same binder?
The pKd was 3.83.

What about the pKd [7, 27] of the same binder?
The pKd was “below the threshold”.

And the pKd [8, 27]?
Its pKd is “below the threshold”.

And the pKd [9, 27]?
Its pKd is “below the threshold”.

And the pKd [10, 27]?
Its pKd is “below the threshold”.

And the pKd [11, 27]?
Its pKd is “below the threshold”.

And the pKd [12, 27]?
Its pKd is “below the threshold”.

What about the pKd [13, 27] of the same binder?
Its pKd is “below the threshold”.

And the pKd [14, 27]?
Its pKd is “below the threshold”.

And the pKd [15, 27]?
Its pKd is “below the threshold”.

What about the pKd [16, 27] of the same binder?
Its pKd is “below the threshold”.

And the pKd [17, 27]?
The pKd was “below the threshold”.

And the pKd [18, 27]?
Its pKd is “below the threshold”.

What about the pKd [19, 27] of the same binder?
Its pKd is “below the threshold”.

What about the pKd [20, 27] of the same binder?
Its pKd is 3.92.

And the pKd [21, 27]?
Its pKd is “below the threshold”.

And the pKd [22, 27]?
Its pKd is “below the threshold”.

What about the pKd [23, 27] of the same binder?
Its pKd is “below the threshold”.

And the pKd [24, 27]?
Its pKd is “below the threshold”.

And the pKd [25, 27]?
Its pKd is “below the threshold”.

And the pKd [26, 27]?
Its pKd is “below the threshold”.

What does the source list for RTQSSDSAYV [GJD2, Q9UKL4]?
pKd [1, 28]: below the threshold; pKd [2, 28]: below the threshold; pKd [3, 28]: below the threshold; pKd [4, 28]: below the threshold; pKd [5, 28]: 3.65; pKd [6, 28]: 3.48; pKd [7, 28]: 4.09; pKd [8, 28]: below the threshold; pKd [9, 28]: below the threshold; pKd [10, 28]: below the threshold; pKd [11, 28]: below the threshold; pKd [12, 28]: below the threshold; pKd [13, 28]: below the threshold; pKd [14, 28]: below the threshold; pKd [15, 28]: below the threshold; pKd [16, 28]: below the threshold; pKd [17, 28]: below the threshold; pKd [18, 28]: 3.68; pKd [19, 28]: below the threshold; pKd [20, 28]: 4.95; pKd [21, 28]: below the threshold; pKd [22, 28]: below the threshold; pKd [23, 28]: 3.78; pKd [24, 28]: below the threshold; pKd [25, 28]: below the threshold; pKd [26, 28]: below the threshold

What does the source list for GQETPLNTFC [MAP7D2, Q96T17]?
pKd [1, 28]: below the threshold; pKd [2, 28]: below the threshold; pKd [3, 28]: below the threshold; pKd [4, 28]: below the threshold; pKd [5, 28]: below the threshold; pKd [6, 28]: below the threshold; pKd [7, 28]: below the threshold; pKd [8, 28]: below the threshold; pKd [9, 28]: below the threshold; pKd [10, 28]: below the threshold; pKd [11, 28]: 3.81; pKd [12, 28]: below the threshold; pKd [13, 28]: below the threshold; pKd [14, 28]: below the threshold; pKd [15, 28]: below the threshold; pKd [16, 28]: below the threshold; pKd [17, 28]: below the threshold; pKd [18, 28]: below the threshold; pKd [19, 28]: below the threshold; pKd [20, 28]: 4.26; pKd [21, 28]: below the threshold; pKd [22, 28]: 3.79; pKd [23, 28]: below the threshold; pKd [24, 28]: below the threshold; pKd [25, 28]: below the threshold; pKd [26, 28]: below the threshold

Which pKd [1, 28] does the source give for RPGFASESKV [ADRB1, P08588] here?
Its pKd is 3.75.

And the pKd [2, 28]?
Its pKd is “below the threshold”.

What about the pKd [3, 28] of the same binder?
Its pKd is “below the threshold”.

What about the pKd [4, 28] of the same binder?
The pKd was “below the threshold”.

And the pKd [5, 28]?
Its pKd is “below the threshold”.

What about the pKd [6, 28] of the same binder?
The pKd was “below the threshold”.

What about the pKd [7, 28] of the same binder?
The pKd was 3.82.

And the pKd [8, 28]?
The pKd was “below the threshold”.

And the pKd [9, 28]?
Its pKd is 4.6.

What about the pKd [10, 28] of the same binder?
Its pKd is “below the threshold”.

What about the pKd [11, 28] of the same binder?
The pKd was “below the threshold”.

And the pKd [12, 28]?
Its pKd is “below the threshold”.

What about the pKd [13, 28] of the same binder?
Its pKd is “below the threshold”.

And the pKd [14, 28]?
Its pKd is 4.03.

And the pKd [15, 28]?
Its pKd is “below the threshold”.

And the pKd [16, 28]?
Its pKd is “below the threshold”.

What about the pKd [17, 28] of the same binder?
The pKd was 3.71.

And the pKd [18, 28]?
Its pKd is “below the threshold”.

What about the pKd [19, 28] of the same binder?
The pKd was “below the threshold”.

And the pKd [20, 28]?
Its pKd is 4.36.

What about the pKd [21, 28] of the same binder?
Its pKd is “below the threshold”.

And the pKd [22, 28]?
Its pKd is 3.66.

What about the pKd [23, 28] of the same binder?
Its pKd is “below the threshold”.

What about the pKd [24, 28] of the same binder?
The pKd was 3.64.

What about the pKd [25, 28] of the same binder?
The pKd was 4.35.

And the pKd [26, 28]?
The pKd was 3.95.

Which pKd [1, 28] does the source give for DFRHKSSFVI [JAM3, Q9BX67] here?
Its pKd is 3.52.

And the pKd [2, 28]?
Its pKd is “below the threshold”.

And the pKd [3, 28]?
Its pKd is “below the threshold”.

What about the pKd [4, 28] of the same binder?
The pKd was “below the threshold”.

What about the pKd [5, 28] of the same binder?
Its pKd is “below the threshold”.

And the pKd [6, 28]?
The pKd was “below the threshold”.

What about the pKd [7, 28] of the same binder?
Its pKd is “below the threshold”.

What about the pKd [8, 28] of the same binder?
The pKd was “below the threshold”.

What about the pKd [9, 28] of the same binder?
Its pKd is “below the threshold”.

And the pKd [10, 28]?
The pKd was “below the threshold”.

And the pKd [11, 28]?
The pKd was 3.82.

And the pKd [12, 28]?
The pKd was 3.76.

And the pKd [13, 28]?
Its pKd is “below the threshold”.

And the pKd [14, 28]?
Its pKd is “below the threshold”.

And the pKd [15, 28]?
Its pKd is “below the threshold”.

And the pKd [16, 28]?
Its pKd is “below the threshold”.

What about the pKd [17, 28] of the same binder?
Its pKd is “below the threshold”.

What about the pKd [18, 28] of the same binder?
The pKd was 3.94.

What about the pKd [19, 28] of the same binder?
The pKd was 4.05.

What about the pKd [20, 28] of the same binder?
Its pKd is “below the threshold”.

And the pKd [21, 28]?
Its pKd is “below the threshold”.

What about the pKd [22, 28] of the same binder?
The pKd was “below the threshold”.

And the pKd [23, 28]?
Its pKd is 5.21.

And the pKd [24, 28]?
The pKd was “below the threshold”.

What about the pKd [25, 28] of the same binder?
Its pKd is “below the threshold”.

And the pKd [26, 28]?
The pKd was “below the threshold”.
